Starred links: 1 amine or outer side, 2 acyl side, 3 side chain; linkers in the order of their positions; H or OH if unused. Non-standard residues stand in square brackets, D forms with d. Groups on a side chain read outwards from the residue. *: point of attachment. C18 diacid = O=C(O)CCCCCCCCCCCCCCCCC(=O)*; γGlu = O=C(O)[C@H](CCC(=O)[*:2])N[*:1]; αMe4Pal = C[C@](N)(Cc1ccncc1)C(=O)O; 4Pal = N[C@@H](Cc1ccncc1)C(=O)O; αMeL = CC(C)C[C@](C)(N)C(=O)O; Orn = NCCC[C@H](N)C(=O)O; Aib = CC(C)(N)C(=O)O
T1: hGIPR (Homo sapiens, UniProt P48546)
T1 sequence (P48546 22-466): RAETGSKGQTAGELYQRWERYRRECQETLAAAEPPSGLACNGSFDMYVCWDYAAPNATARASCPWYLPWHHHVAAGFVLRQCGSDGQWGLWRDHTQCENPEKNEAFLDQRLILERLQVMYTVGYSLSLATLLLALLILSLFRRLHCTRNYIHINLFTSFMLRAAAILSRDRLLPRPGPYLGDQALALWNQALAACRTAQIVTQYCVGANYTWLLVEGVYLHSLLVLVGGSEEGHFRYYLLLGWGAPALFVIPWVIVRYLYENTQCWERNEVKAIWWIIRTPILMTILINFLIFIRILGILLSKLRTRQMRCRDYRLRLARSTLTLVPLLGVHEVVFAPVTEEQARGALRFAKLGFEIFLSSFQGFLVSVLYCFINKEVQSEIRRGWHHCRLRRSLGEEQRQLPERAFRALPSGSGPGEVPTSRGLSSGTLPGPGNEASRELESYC

T2: human GIP receptor (human) (UniProt P48546)
T2 sequence (looked up): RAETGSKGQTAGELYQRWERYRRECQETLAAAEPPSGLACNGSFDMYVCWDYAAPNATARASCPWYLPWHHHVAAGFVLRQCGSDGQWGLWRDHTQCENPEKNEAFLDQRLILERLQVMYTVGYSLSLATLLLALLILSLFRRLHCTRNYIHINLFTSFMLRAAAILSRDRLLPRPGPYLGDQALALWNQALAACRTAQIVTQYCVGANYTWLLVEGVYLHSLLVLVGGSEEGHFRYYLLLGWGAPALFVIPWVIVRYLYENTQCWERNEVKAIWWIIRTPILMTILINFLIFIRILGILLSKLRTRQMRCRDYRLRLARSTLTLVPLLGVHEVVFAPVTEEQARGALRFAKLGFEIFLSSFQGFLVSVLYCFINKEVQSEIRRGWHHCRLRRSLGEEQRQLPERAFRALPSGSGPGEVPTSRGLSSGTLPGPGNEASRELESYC

B1: Example 1142 (peptide)
chain: YXQGTXTSDXXIXLDXKAQXEFIEXLIEGGPSSGAPPPTGE
modifications: Aib, αMeF(2F), 4Pal, αMeS, αMeL, Orn, Me4Pal, αMeY, acyl, amide; synthetic construct; SITE 2: note = 2-Aminoisobutyric Acid; SITE 6: note = alpha-methyl-2-fluoro-L-phenylalanine; SITE 10: note = 3-(4-Pyridyl)-L-alanine; SITE 11: note = alpha-methyl-L-serine; SITE 13: note = alpha-methyl-leucine; SITE 16: note = L-ornithine; SITE 17: note = Lysine is chemically mo
B2: Example 1146 (peptide)
chain: YXQGTXTSDXXIXLDXKAQXEFIEXLIEGGPSSGAPPPESE
modifications: non-natural residues, acylated Lys, C-terminal amide; synthetic construct; SITE 2: note = 2-Aminoisobutyric Acid; SITE 6: note = alpha-methyl-2-fluoro-L-phenylalanine; SITE 10: note = 3-(4-Pyridyl)-L-alanine; SITE 11: note = alpha-methyl-L-serine; SITE 13: note = alpha-methyl-leucine; SITE 16: note = L-ornithine; SITE 17: note = Lysine is chemically mo
B3: Example 1144 (peptide)
chain: YXQGTXTSDXXIXLDXKAQXEFIEXLIEGGPSSGAPPPGGE
modifications: non-natural residues; K acylated AEEA-γGlu-C18 diacid; C-amide; synthetic construct; SITE 2: note = 2-Aminoisobutyric Acid; SITE 6: note = alpha-methyl-2-fluoro-L-phenylalanine; SITE 10: note = 3-(4-Pyridyl)-L-alanine; SITE 11: note = alpha-methyl-L-serine; SITE 13: note = alpha-methyl-leucine; SITE 16: note = L-ornithine; SITE 17: note = Lysine is chemically mo
B4: Example 1148 (peptide)
chain: YXQGTXTSDXXIXLDXKAQXEFIEXLIEGGPSSGAPPPEGE
modifications: non-natural residues, AEEA-γGlu-diacid acylated Lys, C-terminal amide; synthetic construct; SITE 2: note = 2-Aminoisobutyric Acid; SITE 6: note = alpha-methyl-2-fluoro-L-phenylalanine; SITE 10: note = 3-(4-Pyridyl)-L-alanine; SITE 11: note = alpha-methyl-L-serine; SITE 13: note = alpha-methyl-leucine; SITE 16: note = L-ornithine; SITE 17: note = Lysine is chemically mo
B5: Example 1135 (peptide)
chain: YXQGTFTSDXXIXLDXKAQXQFIQXLIEXGPSSGAPPPSGGGE
modifications: not fully specified; N-methyl Tyr, non-natural residues, acylation, C-terminal amide; synthetic construct; SITE 1: note = N-methyl-tyrosine; SITE 2: note = 2-Aminoisobutyric Acid; SITE 10: note = 3-(4-Pyridyl)-L-alanine; SITE 11: note = alpha-methyl-L-serine; SITE 13: note = alpha-methyl-leucine; SITE 16: note = L-ornithine; SITE 17: note = Lysine is chemically modified through conju
B6: Example 1139 (peptide)
chain: YXQGTFTSDXXQXLDXKAQXQFIQXLLEXGPSSGAPPPSGGGE
modifications: not fully specified; non-natural residues (Aib, 4Pal, αMeS, Iva, αMeY); lipidated K; amide; synthetic construct; SITE 2: note = 2-Aminoisobutyric Acid; SITE 10: note = 3-(4-Pyridyl)-L-alanine; SITE 11: note = alpha-methyl-L-serine; SITE 13: note = alpha-methyl-leucine; SITE 16: note = L-ornithine; SITE 17: note = Lysine is chemically modified through conjugation of the epsilon-amino group
B7: Example 1138 (peptide)
chain: YXQGTFTSDXXQXLDXKAQXQFIQXLLEXGPSSGAPPPSGGGE
modifications: not fully specified; non-natural residues, acylated Lys, C-terminal amide; synthetic construct; SITE 2: note = 2-Aminoisobutyric Acid; SITE 10: note = 3-(4-Pyridyl)-L-alanine; SITE 11: note = alpha-methyl-L-serine; SITE 13: note = alpha-methyl-leucine; SITE 16: note = L-ornithine; SITE 17: note = Lysine is chemically modified through conjugation of the epsilon-amino group
B8: Example 1136 (peptide)
chain: YXQGTFTSDXXIXLDXKAQXQFIQXLIEXGPSSGAPPPSGGGE
modifications: not fully specified; non-natural residues (Aib, 4Pal, αMeS, Orn, Me4Pal); lipidated Lys; C-amide; synthetic construct; SITE 2: note = 2-Aminoisobutyric Acid; SITE 10: note = 3-(4-Pyridyl)-L-alanine; SITE 11: note = alpha-methyl-L-serine; SITE 13: note = alpha-methyl-leucine; SITE 16: note = L-ornithine; SITE 17: note = Lysine is chemically modified through conjugation of the epsilon-amino group
B9: Example 247 (peptide)
chain: YXQGTFTSDFSXXLDKKAQXAFIEYLLEXGHSSGAPPPSGE
modifications: non-natural residues; lipidated Lys AEEA-γGlu-C18 diacid; C-term amide; synthetic construct; SITE 2: note = 2-Aminoisobutyric Acid; SITE 12: note = L-ornithine; SITE 13: note = alpha-methyl-leucine; SITE 17: note = Lysine is chemically modified through conjugation of the epsilon-amino group of the Lysine side chain with (2-[2-(2-Amino-ethoxy)-ethoxy]-acetyl)-(gamma-Glu)
B10: Example 266 (peptide)
chain: YXQGTFTSDFSXXLDKKAQXAFIEWLLEXGHSSGAPPPSGE
modifications: Aib, Orn, αMeL; K acylated with (AEEA)2-γGlu-C18 diacid; C-amide; synthetic construct; SITE 2: note = 2-Aminoisobutyric Acid; SITE 12: note = L-ornithine; SITE 13: note = alpha-methyl-leucine; SITE 17: note = Lysine is chemically modified through conjugation of the epsilon-amino group of the Lysine side chain with (2-[2-(2-Amino-ethoxy)-ethoxy]-acetyl)2-(gamma-Glu)

Assays:
[1] = target: T1, hGIPR; assay: Functional cAMP activity in the presence of 1% HSA; format: cell-based; details: read-out: cAMP Rel EC50, hGIPR
[2] = target: human GcgR (Homo sapiens, UniProt P47871); assay: Functional cAMP activity in the presence of 1% HSA; format: cell-based; details: read-out: cAMP Rel EC50, hGcgR
[3] = target: T1, hGIPR; assay: Functional cAMP activation in the presence of 0.1% casein (no HSA); format: cell-based; details: in the presence of 0.1% casein (no HSA); geometric mean; read-out: Relative cAMP EC50, hGIPR;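 on Relative cAMP EC50, hGIPR: intracellular cAMP rise after 30 min at 37 °C read by HTRF against a standard curve, scaled between buffer alone (0%) and top control ligand concentration (100%), four-parameter fit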;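 on Relative cAMP EC50, hGLP-1R: intracellular cAMP rise after 30 min at 37 °C read by HTRF, normalized between buffer only (0%) and maximal control ligand (100%), four-parameter variable-slope fit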;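 on Relative cAMP EC50, hGcgR: intracellular cAMP rise after 30 min at 37 °C, read by HTRF against a cAMP standard curve, scaled from buffer only (0%) to maximal control ligand response (100%)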
[4] = target: T3, hGLP-1R (Homo sapiens, UniProt P43220); assay: as above; format: cell-based; details: in the presence of 0.1% casein (no HSA); geometric mean; read-out: Relative cAMP EC50, hGLP-1R;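 further: intracellular cAMP rise after 30 min at 37 °C read by HTRF, normalized between buffer only (0%) and maximal control ligand (100%), four-parameter variable-slope fit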
[5] = target: hGcgR (Homo sapiens, UniProt P47871); assay: as above; format: cell-based; details: in the presence of 0.1% casein (no HSA); geometric mean; read-out: Relative cAMP EC50, hGcgR;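 further: intracellular cAMP rise after 30 min at 37 °C, read by HTRF against a cAMP standard curve, scaled from buffer only (0%) to maximal control ligand response (100%)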
[6] = target: T3, hGLP-1R; assay: cell-based or functional assay
[7] = target: T2, human GIP receptor (human); assay: cell-based or functional assay
[8] = target: human glucagon receptor (human) (UniProt P47871); assay: cell-based or functional assay
human glucagon receptor (human), sequence (P47871 26-477): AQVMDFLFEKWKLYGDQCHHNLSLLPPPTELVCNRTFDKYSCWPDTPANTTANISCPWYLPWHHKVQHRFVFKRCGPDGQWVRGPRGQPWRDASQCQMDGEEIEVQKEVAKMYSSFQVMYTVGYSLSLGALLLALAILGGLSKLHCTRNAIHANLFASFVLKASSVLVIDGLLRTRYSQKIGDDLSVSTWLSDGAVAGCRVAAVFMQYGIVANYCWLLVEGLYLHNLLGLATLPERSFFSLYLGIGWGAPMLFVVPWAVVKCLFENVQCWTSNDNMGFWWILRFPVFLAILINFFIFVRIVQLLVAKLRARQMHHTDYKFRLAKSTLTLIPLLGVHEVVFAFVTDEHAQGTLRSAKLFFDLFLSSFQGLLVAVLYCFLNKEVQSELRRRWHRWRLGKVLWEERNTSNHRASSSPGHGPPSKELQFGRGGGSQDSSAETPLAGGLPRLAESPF

T3 sequence (P43220 24-463): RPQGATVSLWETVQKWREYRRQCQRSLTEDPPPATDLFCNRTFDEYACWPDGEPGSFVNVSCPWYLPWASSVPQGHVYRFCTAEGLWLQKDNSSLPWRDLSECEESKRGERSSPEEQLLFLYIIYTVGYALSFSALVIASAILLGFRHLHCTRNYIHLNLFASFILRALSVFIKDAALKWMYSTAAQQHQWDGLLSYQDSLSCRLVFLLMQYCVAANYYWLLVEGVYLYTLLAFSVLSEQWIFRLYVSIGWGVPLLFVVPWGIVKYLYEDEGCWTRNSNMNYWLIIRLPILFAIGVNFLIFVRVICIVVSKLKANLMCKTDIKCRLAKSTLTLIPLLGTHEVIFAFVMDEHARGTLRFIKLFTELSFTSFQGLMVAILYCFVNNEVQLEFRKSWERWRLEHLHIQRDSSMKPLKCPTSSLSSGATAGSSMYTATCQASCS
hGcgR, sequence (P47871 26-477): as the sequence (P47871 26-477) above
human GcgR, sequence (P47871 26-477): as above

Molecule	Relative cAMP EC50 [6] [nM]	Relative cAMP EC50 [7] [nM]	Relative cAMP EC50 [8] [nM]	other results
H-Y[Aib]QGTFTSD[4Pal]S[Orn][αMeL]LD[Orn]K([γGlu-γGlu-C18 diacid])AQ[αMe4Pal]AFIEYLIAGGPSSGAPPPSGSEE-NH2 [Example 1059]	–	–	–	EC50 [1]: 48.9 nM; EC50 [2]: 748 nM; EC50 [3]: 0.468 nM; EC50 [4]: 4.61 nM; EC50 [5]: 7.52 nM
B1	0.329	0.00706	1.34	–
B2	0.281	0.00628	1.22	–
B3	0.282	0.00649	1.32	–
B4	0.299	0.00801	1.6	–
B5	0.746	0.0126	1.76	–
B6	1.85	0.0431	5.29	–
B7	1.93	0.0491	1.01	–
B8	0.453	0.0131	1.26	–
B9	–	–	–	cAMP Rel EC50 (in the presence of 1% HSA) [6]: 291 nM; cAMP Rel EC50 (in the presence of 1% HSA) [7]: 12.9 nM; cAMP Rel EC50 (in the presence of 1% HSA) [8]: 443 nM
B10	–	–	–	cAMP Rel EC50 (in the presence of 1% HSA) [6]: 583 nM; cAMP Rel EC50 (in the presence of 1% HSA) [7]: 17.3 nM; cAMP Rel EC50 (in the presence of 1% HSA) [8]: 923 nM

— patent US20240270821A1, “GIP/GLP1/GCG TRI-RECEPTOR AGONISTS AND USES THEREOF” (priority 2023, published 2024)
